T1: PKAL-1 (Caenorhabditis elegans, UniProt O02171)
T1 construct: PKAL-1 from C. elegans cDNA library in pET16b-KH01, C-terminal His tag, expressed in E. coli BL21(DE3), Ni resin and Superdex 200
T1 sequence (O02171 1-497): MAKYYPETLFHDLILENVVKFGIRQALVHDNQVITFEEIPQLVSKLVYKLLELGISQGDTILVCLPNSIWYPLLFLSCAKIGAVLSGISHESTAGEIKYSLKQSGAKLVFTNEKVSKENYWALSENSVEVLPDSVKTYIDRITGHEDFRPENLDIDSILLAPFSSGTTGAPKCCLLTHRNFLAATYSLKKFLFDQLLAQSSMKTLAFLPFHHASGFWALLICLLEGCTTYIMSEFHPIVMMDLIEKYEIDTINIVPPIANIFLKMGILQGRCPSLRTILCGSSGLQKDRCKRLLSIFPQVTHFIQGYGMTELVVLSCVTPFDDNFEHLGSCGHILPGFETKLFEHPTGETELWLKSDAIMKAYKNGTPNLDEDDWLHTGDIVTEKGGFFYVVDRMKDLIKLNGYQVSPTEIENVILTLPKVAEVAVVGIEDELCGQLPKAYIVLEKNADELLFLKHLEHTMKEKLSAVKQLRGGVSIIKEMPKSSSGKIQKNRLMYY

B1: PKAL-1 (Caenorhabditis elegans) (protein)
chain: T1 sequence (O02171 1-497)
notes: PKAL-1 from C. elegans cDNA library in pET16b-KH01, C-terminal His tag, expressed in E. coli BL21(DE3), Ni resin and Superdex 200

What was measured:
PKAL-1 = target: T1, PKAL-1; experiment: enzyme-coupled continuous spectrophotometric assay (NADH); type: biochemical; settings: 4 mM ATP, 10 mM MgCl2, 100 mM hydroxylamine as acceptor, Tris pH 7.4, 22 °C; apparent
purified protein = substrate: CCCCCCCCCCCCCCCC(=O)O; experiment: purified protein; settings: 4 mM ATP, 10 mM MgCl2, 100 mM hydroxylamine as acceptor, Tris pH 7.4, 22 °C, apparent
[1] = substrate: CCCCCCCCCCCC(=O)O; experiment: enzyme-coupled continuous spectrophotometric assay (NADH); type: biochemical, Caenorhabditis elegans; settings: 4 mM ATP, 10 mM MgCl2, 100 mM hydroxylamine as acceptor, Tris pH 7.4, 22 °C, apparent
[2] = substrate: CCCCCCCCCC(=O)O; experiment: as above; type: biochemical, Caenorhabditis elegans; settings: 4 mM ATP, 10 mM MgCl2, 100 mM hydroxylamine as acceptor, Tris pH 7.4, 22 °C, apparent
[3] = substrate: CCCCCCCCCCCCCC(=O)O; experiment: as above; type: biochemical, Caenorhabditis elegans; settings: 4 mM ATP, 10 mM MgCl2, 100 mM hydroxylamine as acceptor, Tris pH 7.4, 22 °C, apparent

Molecule	Km (PKAL-1)	Km (purified protein)	kcat (purified protein)	Km [1]	kcat [1]	Km [2]	kcat [2]	Km [3]	kcat [3]
CCCCCCCC(=O)O [C8]	C12, which is in turn preferred over C10 and C8	–	–	–	–	–	–	–	–
B1	–	8.7 ± 0.4 µM	0.0127 ± 0.000484 s⁻¹	84.6 ± 17.5 µM	0.00943 ± 0.00211 s⁻¹	411.0 ± 20.2 µM	0.0437 ± 0.00284 s⁻¹	21.8 ± 2.6 µM	0.03 ± 0.00223 s⁻¹
